Reference: the supplement of paper PMC11865577

What was measured:
Assay in all cases: pull-down binding Z-score (relative to library population); higher = stronger binding
Settings in all cases: RNA library: Library-2
[1] = test system: TO-3-N3-2 (biotin conjugate)
Outline: (§1)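 Binding is given as a Z-score against the library mean and standard deviation, calculated after removing the beads-only signal and averaging barcoded replicate probes without their highest and lowest values. Cy5- or Cy3-end-labelled RNA library (1 μg) was heat-folded in phosphate/NaCl/KCl buffer and incubated 60 min at 25 °C with streptavidin beads bearing 100 pmol of biotin-conjugated small molecule. After three washes, RNA eluted in hot SDS was hybridised to a DNA barcode microarray for 20 h at 55.5 °C.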

[2] = test system: TO-N3 (biotin conjugate)
Outline: as §1

[3] = test system: TO-3-N3 (biotin conjugate)
Outline: as §1

[4] = test system: TO-N3-2 (biotin conjugate)
Outline: as §1

Row | Sequence | pull-down binding Z-score [1] | pull-down binding Z-score [2] | pull-down binding Z-score [3] | pull-down binding Z-score [4]
1 | CCCCGGCCCCGGCCCCGGCCCCGG [r(CCCCGG)4] | 0.272 | 0.747 | 0.661 | 1.48
2 | CCAGAGAAGAAACUGG | 0.0828 | 0.417 | 0.466 | 0.486
3 | GUGCCAGCACAAAAUGCUAUAAGCAC [IAV_invivo_PB1_2_Motif_3+IAV_invivo_PB1_2_Motif_3] | -0.201 | -1.07 | -0.871 | -0.727
4 | GUCGUUGACAGGACACGAGUAACUCGUCUAUCUUCUGCAGGCUGC [SARS-CoV-2-Conserved-Structured-34_Interval-80-197_Motif_3] | 0.148 | 0.831 | -0.455 | 2.14
5 | AAUUGAUUCUUACUUUGUAGUUAAGAGACACACUUUCUCUAACUACCAACAUGAAGAAACAAUU | 0.0491 | 0.281 | 0.502 | -0.614
6 | GUGUUUAUGAUUACUUAGUUUCUACACAGGAGUUUAGAUAUAUGAAUUCACAGGGACUACUCCCACCCAAGAAUAGCAUAGAUGC | 0.472 | -0.0167 | -0.215 | -0.079
7 | GUUCUAAGUAUUGCUCCAAUAAUGUUCUCAAACAAAAUGGCGAGACUGGGAAAAGGGUAUAUGUUUGAGAGCAAGAGUAUGAAACUUAGAAC [IAV_invivo_PB1_2_Motif_18+IAV_invivo_PB1_2_Motif_18] | 0.578 | 1.12 | 0.629 | 1.25
8 | CUCAGAGUAGAAAUUUACAAGAAUUUAAACCCAGGAG [DMSMaPseq_invitro_SARS-CoV-2_Motif_359] | -0.119 | -0.463 | -0.646 | -0.531
9 | AACGGGGCGGGCCUCGGGCGGGGUAA [G4_2A2_VEGF-Pu22-mt3] | 10.6 | 6.92 | 8.63 | 5.08
10 | UGCAGAUUCAACUUUGAUUGGUGAUUGUGCA | 0.191 | 0.273 | 0.338 | -0.565
11 | GCUUCUAGAAAGUGAACUCGUAAUCGGAGCUGUGAUCCUUCGUGGACAUCUUCGUAUUGCUGGACACCAUCUAGGACGC | 0.191 | 0.335 | -0.191 | 1.23
12 | CCCCAGGGAUGCAAAUAAGGGG [IAV_invivo_PB1_2_Motif_14+IAV_invivo_PB1_2_Motif_14] | 0.163 | -0.0747 | 0.0403 | 0.241
13 | AUAAAGAAAUGUAUCUAAAGUUGCGUAGUGAUGUGCUAUUACCUCUUACGCAAUAUAAUAGAUACUUAGCUCUUUAU | -0.197 | -0.507 | -0.341 | -0.61
14 | AACCCUCACCUUAUGGGUU | -0.745 | -0.946 | -0.558 | -1.48
15 | CAUGUCAUGUCUAAACAUACUGACUUUUCAAGUG [SHAPE_invitro_SARS-CoV-2_Motif_169] | -0.276 | -0.41 | -0.283 | -0.539
16 | AUCCGAUUUACAGGAU | -0.525 | -0.894 | -0.684 | -1.16
17 | CAUAAACGAACUUAUGGAUUUGUUUAUG | -0.393 | -0.904 | -0.474 | -1.25
18 | CCCAAUGUUGUUAAACCACACGAAAAGGG [IAV_invivo_PA_3_Motif_15+IAV_invivo_PA_3_Motif_15] | 0.104 | 0.504 | 0.621 | -0.323
19 | GUUCUUUGAGAAC [IAV_invivo_PA_3_Motif_25+IAV_invivo_PA_3_Motif_25] | -0.317 | 0.0597 | 0.296 | -0.894
20 | GCUGCACAAAAAGC [IAV_invivo_NP_5_Motif_13+IAV_invivo_NP_5_Motif_13] | -0.544 | -1.08 | -0.79 | -0.23
21 | GGCCCGAGUGAUGGGCU [IAV_invivo_NA_6_Motif_9+IAV_invivo_NA_6_Motif_9] | -0.29 | -0.27 | -0.127 | 0.201
22 | ACAUUAGAUAAUCAAGAUCUCAAUGGUAACUGGUAUGAUUUCGGUGAUUUCAUACAAACCACGCCAGGUAGUGGAGUUCCUGUUGUAGAUUCUUAUUAUUCAUUGU | 0.102 | 0.235 | -0.0358 | 0.46
23 | CCCAAUCAUGAAGGG [IAV_invivo_PB1_2_Motif_24+IAV_invivo_PB1_2_Motif_24] | -0.407 | -0.488 | -0.131 | -0.373
24 | CAUGGAUUUGUCUUCUACAAUUUGCCUAUG | -0.186 | -0.967 | -0.852 | -0.745
25 | UCACACUCAAAGGCGGUGCACCAACAAAGGUUACUUUUGGUGAUGACACUGUGAUAGAAGUGCAAGGUUACAAGAGUGUGAAUAUCACUUUUGAACUUGAUGA [DMSMaPseq_invitro_SARS-CoV-2_Multi_10_ComplexLevel_1] | -0.184 | 0.304 | 0.0984 | 0.257

Row | Sequence | pull-down binding Z-score [1] | pull-down binding Z-score [2] | pull-down binding Z-score [3] | pull-down binding Z-score [4]
26 | AUUCUAUUCUAUUCUAUUCU [r(AUUCU)4] | -0.0109 | 1.03 | 1.33 | -0.629
27 | GGUGUUGUUGGAGAAGGUUCCGAAGGUCUUAAUGACAACCUUCUUGAAAUACUCC | 0.0401 | 0.261 | 0.245 | 0.062
28 | CCCAGUGCGGGG [IAV_invivo_NP_5_Motif_5+IAV_invivo_NP_5_Motif_5] | -0.664 | -1.12 | -0.794 | -0.984
29 | AACAAAUGUGUCAAUUUCAACUUCAAUGGUUUAACAGGCACAGGUGUU | -0.221 | -0.754 | -0.698 | -0.968
30 | GGUUCACUAUAUGUUAAACCAGGUGGAACC | 0.221 | 0.506 | 0.612 | -0.369
31 | CUAGGUUUUUCUAUGUACUUGG | 0.313 | 0.825 | 1.15 | -0.376
32 | GCUUGCAUACGUAGACCAUUCUUAUGUUGUAAAUGCUGUUACGACCAUGUCAUAUCAACAUCACAUAAAUUAGUCUUGUCUGUUAAUCCGUAUGUUUGCAAUGC [DMSMaPseq_invitro_SARS-CoV-2_Motif_294] | -0.304 | -0.546 | -0.654 | -0.437
33 | CAUGAGCAGUGCUGACUCAACUCAGGCCUAAACUCAUG | 0.0138 | 0.27 | -0.197 | 0.83
34 | AACUGUGAUGUUGUAAUAGGAAUUGUCAACAACACAGUU | -0.0554 | -0.618 | -0.296 | -1
35 | GUGCUAAUGACCCUGUGGGUUUUACAC [SHAPE_invivo_SARS-CoV-2_Motif_252] | -0.275 | 0.0247 | 0.178 | -0.465
36 | GCUUUGUCCAAAAUGCCCUUAAUGGGAACGGGGAUCCAAAUAACAUGGACAAAGC [IAV_invivo_M1_M2_7_Motif_6+IAV_invivo_M1_M2_7_Motif_6] | 0.353 | -0.155 | 0.0624 | -0.236
37 | AUAAAAUAGAAGAAUUAUUCUAUUCUUAU | -0.288 | -0.62 | -0.26 | -1.22
38 | UAAUCAGACAAGGAACUGAUUA | -0.537 | -0.836 | -0.426 | -0.943
39 | UCUCUCUCAUUUUGUUAACUUAGACAACCUGAGAGCUAAUAACACUAAAGGUUCAUUGCCUAUUAAUGUUAUAGUUUUUGAUGGUAAAUCAAAAUGUGAAGA [DMSMaPseq_invitro_SARS-CoV-2_Motif_146] | -0.388 | -0.723 | -0.765 | -0.699
40 | AUAGAUUAUGUACCACUAAAGUCUGCUACGUGUAUAACACGUUGCAAUUUAGGUGGUGCUGUCUGU | -0.399 | -1.01 | -0.766 | -0.77
41 | CUAACAUGCUUAG [SHAPE_invitro_SARS-CoV-2_Motif_280] | -0.299 | 0.578 | 0.709 | -0.734
42 | UAAGGAAGGAAGUUCUGUUGAAUUAAAACACUUCUUCUUUG [SHAPE_invitro_SARS-CoV-2_Motif_269] | -0.389 | -1.1 | -0.963 | -0.905
43 | CAUGUGAUCUGCACCUCUGAAGACAUG | 0.185 | 0.248 | 0.111 | 0.33
44 | GUUCGUGUUGUUUUAGAUUUCAUCUAAACGAAC | -0.562 | -1.12 | -0.845 | -0.397
45 | GUGUAAAAGUGCCUUUUACAU | -0.646 | -0.957 | -0.525 | -0.872
46 | GGUAAAAUUGUUAAUAAUUGGUUGAAGCAGUUAAUUAAAGUUACACUUGUGUUCCUUUUUGUUGCUGCUAUUUUCUAUUUAAUAACACC [DMSMaPseq_invitro_SARS-CoV-2_Motif_156] | -0.271 | -0.828 | -0.485 | -1.04
47 | GGUUCGUGUCUUUAGCUAUAGAUGCUUACC | 0.206 | 0.913 | 0.877 | -0.066
48 | ACCAGGAGUUUUCUGUGGUGUAGAUGCUGUAAAUUUACUUACUAAUAUGUUUACACCACUAAUUCAACCUAUUGGU [SHAPE_invitro_SARS-CoV-2_Motif_181] | -0.13 | -0.0352 | -0.0454 | -0.878
49 | ACCCUCAAAAAGAGAUGGCAACUAGCACUCUCCAAGGGU | 0.0435 | 0.0275 | 0.217 | -0.427
